Patent EP4574844A1 (Numab Therapeutics AG, dated 2025)

Experiments:
recombinant human LILRB2 = molecular target: T1, recombinant human LILRB2 (human, UniProt Q8N423 22-460, limits assumed); experiment: SPR, LILRB2 immobilised, scFv as analyte
T1 construct: also called ILT4

[1] = molecular target: T2, human LILRB2 on the cell surface (human, UniProt Q8N423 22-597); experiment: flow cytometry, CHO cells expressing LILRB2; competitor HLA-G tetramer
T2 construct: whole, on cells; also called CHO K1 cells expressing human LILRB2; LILRB2 on HMDMs
T2 sequence (Q8N423 22-597): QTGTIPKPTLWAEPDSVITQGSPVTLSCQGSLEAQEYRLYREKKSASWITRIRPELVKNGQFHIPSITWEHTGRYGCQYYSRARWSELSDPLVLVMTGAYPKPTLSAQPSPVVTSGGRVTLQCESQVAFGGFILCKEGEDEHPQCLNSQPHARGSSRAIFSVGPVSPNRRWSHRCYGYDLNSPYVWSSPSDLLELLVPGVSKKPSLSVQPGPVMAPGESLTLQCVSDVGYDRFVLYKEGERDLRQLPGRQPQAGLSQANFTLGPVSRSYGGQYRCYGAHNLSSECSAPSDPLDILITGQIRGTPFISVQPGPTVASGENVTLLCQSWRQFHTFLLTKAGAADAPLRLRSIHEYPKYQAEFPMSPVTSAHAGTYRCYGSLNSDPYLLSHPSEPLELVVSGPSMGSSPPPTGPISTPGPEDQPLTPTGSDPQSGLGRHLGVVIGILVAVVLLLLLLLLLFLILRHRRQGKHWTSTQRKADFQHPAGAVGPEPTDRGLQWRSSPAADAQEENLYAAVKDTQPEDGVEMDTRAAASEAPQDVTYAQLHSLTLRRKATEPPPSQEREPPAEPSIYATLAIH

[2] = molecular target: T3, LILRA1 on transiently transfected CHO cells (UniProt O75019 17-489, limits assumed); experiment: CELISA, transiently transfected CHO cells; scFv cross-linked with an anti-framework antibody
T3 construct: whole, on cells; V5 tag at the N-terminus
T3 sequence (O75019 17-489 limits assumed): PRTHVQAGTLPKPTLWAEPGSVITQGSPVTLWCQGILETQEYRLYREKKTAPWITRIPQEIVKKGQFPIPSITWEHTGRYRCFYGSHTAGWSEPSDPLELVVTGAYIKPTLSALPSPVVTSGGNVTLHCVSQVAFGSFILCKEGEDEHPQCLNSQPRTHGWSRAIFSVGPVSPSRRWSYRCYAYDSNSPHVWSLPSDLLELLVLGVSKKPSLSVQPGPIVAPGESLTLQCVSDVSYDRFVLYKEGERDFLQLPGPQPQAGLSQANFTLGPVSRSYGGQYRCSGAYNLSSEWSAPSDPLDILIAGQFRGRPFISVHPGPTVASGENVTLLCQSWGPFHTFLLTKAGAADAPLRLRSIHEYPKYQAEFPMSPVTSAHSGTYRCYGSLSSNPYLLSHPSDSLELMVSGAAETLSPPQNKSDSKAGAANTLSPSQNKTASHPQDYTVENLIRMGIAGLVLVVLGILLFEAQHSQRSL

[3] = molecular target: T4, LILRA2 on transiently transfected CHO cells (UniProt Q8N149 24-483); experiment: as above
T4 construct: whole, on cells; V5 tag at the N-terminus
T4 sequence (Q8N149 24-483): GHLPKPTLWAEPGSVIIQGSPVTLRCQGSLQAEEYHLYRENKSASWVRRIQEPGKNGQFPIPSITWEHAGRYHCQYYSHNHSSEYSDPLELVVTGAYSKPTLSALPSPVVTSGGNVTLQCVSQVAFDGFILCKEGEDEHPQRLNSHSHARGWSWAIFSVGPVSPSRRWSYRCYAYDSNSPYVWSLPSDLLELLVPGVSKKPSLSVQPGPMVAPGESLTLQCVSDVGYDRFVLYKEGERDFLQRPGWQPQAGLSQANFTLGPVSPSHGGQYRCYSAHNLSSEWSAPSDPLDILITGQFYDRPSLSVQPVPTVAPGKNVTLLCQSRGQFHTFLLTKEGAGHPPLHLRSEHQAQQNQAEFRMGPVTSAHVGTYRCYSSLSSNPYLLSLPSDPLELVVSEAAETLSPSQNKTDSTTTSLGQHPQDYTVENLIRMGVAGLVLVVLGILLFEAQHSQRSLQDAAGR

[4] = molecular target: T5, LILRA3 on transiently transfected CHO cells (UniProt Q8N6C8 24-439); experiment: as above
T5 construct: whole, on cells; V5 tag at the N-terminus
T5 sequence (Q8N6C8 24-439): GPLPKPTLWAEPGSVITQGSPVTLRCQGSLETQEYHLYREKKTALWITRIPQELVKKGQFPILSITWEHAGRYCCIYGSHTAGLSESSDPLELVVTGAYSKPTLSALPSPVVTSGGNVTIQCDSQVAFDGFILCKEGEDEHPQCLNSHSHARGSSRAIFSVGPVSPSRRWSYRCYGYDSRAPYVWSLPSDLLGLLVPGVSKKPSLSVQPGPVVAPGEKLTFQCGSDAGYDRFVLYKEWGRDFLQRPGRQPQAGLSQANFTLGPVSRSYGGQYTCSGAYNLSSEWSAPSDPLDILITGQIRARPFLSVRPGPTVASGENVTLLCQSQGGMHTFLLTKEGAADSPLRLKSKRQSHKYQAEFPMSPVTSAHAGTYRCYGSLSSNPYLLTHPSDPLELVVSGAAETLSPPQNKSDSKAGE

[5] = molecular target: T6, LILRA4 on transiently transfected CHO cells (UniProt P59901 24-499); experiment: as above
T6 construct: whole, on cells; V5 tag at the N-terminus
T6 sequence (P59901 24-499): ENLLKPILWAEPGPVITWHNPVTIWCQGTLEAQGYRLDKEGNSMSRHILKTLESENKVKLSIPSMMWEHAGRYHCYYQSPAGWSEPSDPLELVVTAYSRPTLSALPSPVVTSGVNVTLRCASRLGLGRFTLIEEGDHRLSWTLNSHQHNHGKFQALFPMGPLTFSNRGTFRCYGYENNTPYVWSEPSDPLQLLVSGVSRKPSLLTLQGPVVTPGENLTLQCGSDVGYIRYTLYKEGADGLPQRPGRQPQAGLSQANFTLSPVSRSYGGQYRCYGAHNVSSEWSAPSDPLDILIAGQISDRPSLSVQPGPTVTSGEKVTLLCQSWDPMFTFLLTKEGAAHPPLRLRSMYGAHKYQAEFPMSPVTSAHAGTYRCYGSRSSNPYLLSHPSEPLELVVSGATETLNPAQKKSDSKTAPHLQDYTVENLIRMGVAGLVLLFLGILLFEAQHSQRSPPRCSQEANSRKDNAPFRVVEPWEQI

[6] = molecular target: T7, LILRA5 on transiently transfected CHO cells (UniProt A6NI73 42-299); experiment: as above
T7 construct: whole, on cells; V5 tag at the N-terminus
T7 sequence (A6NI73 42-299): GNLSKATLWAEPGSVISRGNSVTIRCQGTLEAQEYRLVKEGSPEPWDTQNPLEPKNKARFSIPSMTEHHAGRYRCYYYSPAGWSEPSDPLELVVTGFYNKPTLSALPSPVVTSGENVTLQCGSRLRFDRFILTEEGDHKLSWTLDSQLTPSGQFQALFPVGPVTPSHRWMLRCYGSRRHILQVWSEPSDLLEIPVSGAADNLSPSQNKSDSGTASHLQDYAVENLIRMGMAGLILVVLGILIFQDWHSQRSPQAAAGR

[7] = molecular target: T8, LILRA6 on transiently transfected CHO cells (UniProt Q6PI73 24-481); experiment: as above
T8 construct: whole, on cells; V5 tag at the N-terminus
T8 sequence (Q6PI73 24-481): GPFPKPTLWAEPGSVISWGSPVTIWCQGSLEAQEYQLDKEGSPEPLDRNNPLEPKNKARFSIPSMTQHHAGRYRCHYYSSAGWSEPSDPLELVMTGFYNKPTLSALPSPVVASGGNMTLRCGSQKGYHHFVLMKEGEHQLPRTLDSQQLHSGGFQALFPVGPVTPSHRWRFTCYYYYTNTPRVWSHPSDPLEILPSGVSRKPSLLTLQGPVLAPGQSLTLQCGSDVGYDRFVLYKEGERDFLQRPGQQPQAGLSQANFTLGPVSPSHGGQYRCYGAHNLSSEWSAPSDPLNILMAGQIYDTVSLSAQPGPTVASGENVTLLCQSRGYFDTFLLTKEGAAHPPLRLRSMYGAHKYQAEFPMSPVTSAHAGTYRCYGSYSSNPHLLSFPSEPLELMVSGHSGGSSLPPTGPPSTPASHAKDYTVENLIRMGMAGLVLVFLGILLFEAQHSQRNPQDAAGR

[8] = molecular target: T9, LILRB3 on transiently transfected CHO cells (UniProt O75022 24-631, limits assumed); experiment: as above
T9 construct: whole, on cells; V5 tag at the N-terminus

[9] = molecular target: T10, LILRB4 on transiently transfected CHO cells (UniProt Q8NHJ6 22-448); experiment: as above
T10 construct: whole, on cells; V5 tag at the N-terminus

[10] = molecular target: T11, LILRB5 on transiently transfected CHO cells (UniProt O75023 24-590, limits assumed); experiment: as above
T11 construct: whole, on cells; V5 tag at the N-terminus
T11 sequence (O75023 24-590 limits assumed): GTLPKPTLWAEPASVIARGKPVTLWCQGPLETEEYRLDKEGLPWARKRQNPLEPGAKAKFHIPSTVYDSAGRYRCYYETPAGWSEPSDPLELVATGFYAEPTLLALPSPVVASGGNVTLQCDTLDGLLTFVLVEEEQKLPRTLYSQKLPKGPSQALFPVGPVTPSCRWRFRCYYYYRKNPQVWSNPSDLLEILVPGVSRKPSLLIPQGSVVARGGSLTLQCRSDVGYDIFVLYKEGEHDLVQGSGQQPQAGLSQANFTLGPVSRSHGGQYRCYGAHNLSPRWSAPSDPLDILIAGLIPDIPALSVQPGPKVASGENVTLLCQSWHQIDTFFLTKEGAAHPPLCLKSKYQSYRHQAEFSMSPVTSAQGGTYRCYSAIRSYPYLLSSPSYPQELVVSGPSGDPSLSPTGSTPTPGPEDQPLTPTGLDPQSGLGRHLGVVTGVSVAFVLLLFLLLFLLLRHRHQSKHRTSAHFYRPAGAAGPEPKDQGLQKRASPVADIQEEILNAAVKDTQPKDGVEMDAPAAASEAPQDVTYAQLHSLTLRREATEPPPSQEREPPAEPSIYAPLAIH

[11] = molecular target: T2, human LILRB2 on the cell surface; experiment: flow cytometry, CHO cells expressing LILRB2; competitor HLA-G tetramer; reference PRO2518

T1 sequence (Q8N423 22-460 limits assumed): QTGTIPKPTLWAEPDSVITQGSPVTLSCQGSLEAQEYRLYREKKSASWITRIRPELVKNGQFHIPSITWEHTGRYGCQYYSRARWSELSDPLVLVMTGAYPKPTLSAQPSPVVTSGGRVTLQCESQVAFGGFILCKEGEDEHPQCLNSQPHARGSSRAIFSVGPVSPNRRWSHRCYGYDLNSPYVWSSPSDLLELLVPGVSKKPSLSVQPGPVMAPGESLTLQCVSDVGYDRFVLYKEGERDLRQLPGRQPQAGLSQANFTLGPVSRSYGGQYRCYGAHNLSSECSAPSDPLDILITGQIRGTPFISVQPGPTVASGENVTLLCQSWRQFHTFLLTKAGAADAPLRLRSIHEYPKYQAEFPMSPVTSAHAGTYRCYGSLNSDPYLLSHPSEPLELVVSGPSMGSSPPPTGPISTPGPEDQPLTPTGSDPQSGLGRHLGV

Kd (recombinant human LILRB2): 0.131 nM | koff (recombinant human LILRB2): 0.000128 s⁻¹ | kon (recombinant human LILRB2): 974000 M⁻¹ s⁻¹ | IC50 [1]: 0.593 nM | binding result [2]: no binding | binding result [3]: no binding | binding result [4]: no binding | binding result [5]: no binding | binding result [6]: no binding | binding result [7]: no binding | binding result [8]: no binding | binding result [9]: no binding | binding result [10]: no binding | Rel. max. inhibition % (rel. to J-19) [11]: 99.5%
B1: PRO3697 (scFv)
scFv: AFQLTQSPSSLSASVGDRVTITCQASQSIGTYLAWYQQKPGKPPKLLIYRGGTLASGVPSRFSGSGSGTDFTLTISSLQPEDFATYYCQSYDSSNTFGTGTKVTVLGGGGGSGGGGSGGGGSGGGGSQEQLVESGGGLVQPGRSLRLSCAASGFDLSADYMCWVRQAPGKGLEWIACIYIDDDNTYYATWAKGRFTISKDNSKNTVYLQMNSLRAEDSAVYFCARGYGVYTGAITYFTLWGQGTLVKVSS
notes: anti-LILRB2 scFv; in the CELISA selectivity test it was cross-linked with an anti-framework antibody; also called 69-06-G04-sc05
